Measurements published in a protein production outcome set (Wang et al. 2014).

Assay: label from the status in PepcDB records

| Sequence | protein production |
| --- | --- |
| MITKVTARNNKITPVELLNQKFGNKINLGNFADAVFTDAAFKNVAGIANLPMKAPVMQVLMENCIVSKYLKQFVPDRSVCFVEEGQKFYIVLEDGQKIEVPEDVNKALKATVSDVKHWAGYLTEDGEHVIDLLKPAPGPHFYVNLLIGNRLGFKRTLQTTPKSVVDRFGRGSFRSHAATQVLATRFDMRQEENGFPANRQFYLYEDGKQIFYSALIDDNIVEATCKHSCNRTVIKYKTACNLEITRTIFLVPHKKGFPLATELQRIEIKNASDKARNLSITYTGMFGTGAVHAIFEDVTYTNVIMQSAALYNDKGEFIGITPDYYPEEFKQDTRFVTMIVRNGDEKSFPQSFCTDYNDFVGTGTLEHPAGGCNLNNKLNRKGPGFFALGAPFTVEPGKTVIIDTFTGLSSSKDNENYSDAVMLRELDNLLRYFEKSESVEETLNEIINFHENYGKYFQFNTGNKLFDSGFNRNLAFQVLYQTFMSRSFGQTQKGYREIGFREIQDLFASMYYFINIGYQDFVKELLFEWTANVYKMGYANHNFYWVGKQPGLYSDDSLWLLQAYYRYIIYTKDTSVLNEEVPVADGNNEKRAVRETLKAIIQYSACISVGDHGLPLLDLADWNDCLKIASNSIDGATKEKLYYEQLKKTNGKYGDRFMSDYSESVMNAFLLKLAIDHLAEIATLDNDTQLAQQMSELSKEVTDRIQKHAWKENFFARVLINRYKDGSYTYLGAKGDKLSADPNIDGVYFLNSFAWSVLSDVATDEQIAIMVDVIKKHLLTPYGLRLVTPADLNKIANDTATGHYFFGDRENGAVFKHASMMAVAALIKAAKKVKDNELAKEMARIAYFMIDLVLPYKNLENPFQVAGNPRICTQYINTDTGENIGPLLSGTATWLNLNLISLAGIEYTRDGISFNPILREEETQLNFTLKAPKCSYKFSITKPVGFARMESSEYELFVDGQKIDNTVIPMYTDEKEHIVTLKFK | not failed |
| MITNNVSLLIMGIDENQERQKEYNGAFHTDALLLATFNKDDKTVKLTSIPRDTYTYVPVEKKKDKITHAYGSGFVKNGKDGGPQTSVEAVEKLLQVPVDYFVKFNFNSFTKIVDGLDGIEVDVPVEFTEQNSKDEPDAIHLKKGLQKLTGEEALALARTRHIDSDAMRGQRQQLVIEAILSKLKSVGSITKLEKIVEAVDGDFKTNLAMDDILSFYKYGLNCSIEKIQLAGDDLYLPNGPNGQRVYYYNPNKKDLQSLSNTLRTHLGLSEKQIEENLEHHHHHH | not failed |
| MITSTNKEAYPNTLIVILGHDEGRSSFEEKEDVTRVTNDKGETIGFNFFNVDKLIDFDKLPNGPVKLSDDELEALNKKLAEVGFDDKLEYGKPTLVYGYVKTCEKHPDSDHLHVTTIEVGDGEEHQIVCGAPNIAQGQKVVVALPGTLMPNGAQIWPGKLRGVDSYGMICSARELGLPHAPQKRGIMVVPDSFEVGAEFEPTKCDELIASGEITLLEHHHHHH | not failed |
| MITVFGLKSKLAPRREKLAEVIYNSLHLGLDIPKGKHAIRFLCLEKEDFYYPFDRSDDYTVIEINLMAGRMEGTKKRLIKMLFSELEYKLGIRAHDVEITIKEQPAHCWGFRGMTGDEARDLDYDIYV | not failed |
| MITVVGGTFSKLHKGHKALLNTAIDTGNEVVIGLTSDEYVKKNKVYPAIPYSVRYRTLYNYMIKRTNKFRIRQIDDRNGNAPYEKDYEVIVVSPETYPRSLKINEIRISNGLPPLKIIRVPYVLAQDLFPISSTRIINGEID | not failed |
| MITYPKQMRDSGFKFEFFCDQGGYYQHVMDHLISCTQRQETPVNISNIPKCKAVLVTSLTGEIIKAQGRHLDMLLIVFED | failed |
| MIVAWTLGIFGDDLPKGGARETGLLVHVSAGLLILAALIMRLVWRAAVPPPPPEPNEFRRWLGAFADPSARLFHYTLYALLVVVPVAGIVTQFARGEALPLLGIYEISSPWIRDRAFAHSVKEIHEIAAHALVFVAFFHAGAALIHHIVFRDNTLNRMLPRSK | failed |
| MIVCKNRIGTMKRLGRISLRVLLLAGVLLSLLLMAMTLLYPPVEKGGLFFMLAIEVALLFFLGFLYNKVVLPIRAVGDGMDMLRSQDYATTLAPVGQPDADRVVELYNALMHSLKKERLRLEERDNFLSLVMDVSPVGFVVLDFDMRVVSVNPAARRLLDLPDDYIPIERPLEEVCAKIPFGPDELGEGESRTWRLPTAEVRRITRMRFFDRSFSRLFFSIETLTEELHSAEKEAYEKLIRLIAHEVNNSTAGIIGVLNAVGDAFDDTPHTPEGEVSEAIALCRDRCMAMSRFITRFAEVVKLPDPTLSSVDLVPLCERCILLMQPLAVETGVKMKMCKEQDSCLVRCDAEQIEQVVINLLRNAIESFAQQNDLAVSATKTVLLCLDRHNLLVEDNGQPISDDVATRLFTPFFSTKPNGQGIGLVVIREVLTRHGWSFSLTTDADGRTRFRMAWP | failed |
| MIVEERIYRIRGGKMQEYLKLVREEGIAIQAPILGNLIGYFVTDIGPLSQVIHMWGYASLDDRAERRGKLAEDQRWQAFIPRLSVLIESSENRILLPTDFSPLR | not failed |
| MIVITGASSGLGAELAKLYDAEGKATYLTGRSESKLSTVTNCLSNNVGYRACDLASHQEVEQLFEQLDSIPSTVVHSAGSGYFGPLEKQDPDQIQTLIENNLSSAINVLRELVKRYKDQPVNVVMIMSTAAQQPKAQESTYCAVKWAVKGLIESVRLELKGKPMKIIAVYPGGMATEFWETSGKSLDTSSFMSAEDAALMILGALANIGNGYVSDITVNRL | failed |
| MIVLGHRGYSAKYLENTLEAFMKAIEAGANGVELDVRLSKDGKVVVSHDEDLKRLFGLDVKIRDATVSELKELTDGKITTLKEVFENVSDDKIINIEIKEREAADAVLEISKKRKNLIFSSFDLDLLDEKFKGTKYGYLIDEENYGSIENFVERVEKERPYSLHVPYQAFELEYAVEVLRSFRKKGIVIFVWTLNDPEIYRKIRREIDGVITDEVELFVKLR | not failed |
| MIVSITLLILAVGVFAIILARFIRIPYTLLLVVLGFFLSLFTVAFGIDTGVRASNFQDLMLFILLPVLIFEAAFALNSKLLFKYLPNVLTLATLGLIISTLVIAVFLYFGIAHSGFPFIAALLTGVVISATDPVAVVGQLKALKAPDDLNVLIEGESLFNDATAIVLFSIILSIALGQSEPDLTSAIITFSKVFFGGIIVGSVFGYIAALLVKIIDTSVPHMVVITLFLAYGTFYIAEHLFHVSGIVAVMFAALLFKKSAQDQLKDVHTGLHNIWESLGFIANIFVFVLLGLVVSLNMFTQMWLAIILAIVGAFIARVIAVYCSVWLNQVIVGQPINRKYPPIMIWGGLRGAVTIALVLSLPTELPYWWTIQSIGFGIVLFTLIVQATTTPLLVKKLNI | failed |
| MIVSKRTFRSLYIPILIEQLFILIMGQADTLMLNSYSTDAVAASGMISQILMLITFLITIIHVGTNIRIVHLKEHQPSSISQEIYHNLLFNSIVSIVFTIVIGIAFELILRLFQVPQDIFKLTYQFGMIILSVLTLTTCHMYIGTVLRVMNHASSATRITIISNVTNIILNGIVLFIIPQYVGNPVLGVAVVTAFSRLLGCTLALIALIQIFRPFKHYFKLSWKKIYQVSTLGIPTAGEQISYNFAQTFTTAFIAMLGTQVIAAKSVSTVLSGLSFSCAMAFSAASQIYLGKFISRRRYRTLKKVVIKSIWFNITQSFMIMTCVFIGFIVCGRWITHDIQTYHLIIYYLVILFGLEPIRAINNLIVDLLNVTGDVRYPVTVSVVTTWLLLLPGSYLLGIHWRLGYTGIILVSIADEALRFIIMYLRWRNDRWQARMKQIGV | failed |
| MIVVKVGGAEGINYEAVAKDAASLWKEGVKLLLVHGGSAETNKVAEALGHPPRFLTHPGGQVSRLTDRKTLEIFEMVYCGLVNKRLVELLQKEGANAIGLSGLDGRLFVGRRKTAVKYVENGKVKVHRGDYTGTVEEVNKALLDLLLQAGYLPVLTPPALSYENEAINTDGDQIAALLATLYGAEALVYLSNVPGLLARYPDEASLVREIPVERIEDPEYLALAQGRMKRKVMGAVEAVKGGVKRVVFADGRVENPIRRALSGEGTVVR | not failed |
| MIVVTGATGNIGRPLTRALAEAGEQVTAVSRHPAAVPDGVRHLVADLAEPAGLRPALTGAKSLFLLLSGDLHALGANPADLIGEAARSGVRRVVLLSTLGVVTRPFGATRIAMRELEDTLRESGLEWAVLRPGGFASNALWWAESVRARRVVAAPFGDVGVPVVDPADIAAVAAACLLEDRHTGGAYELTGPEVITPRGQTEAIAAALGAPVAFHELTREEARTAMARSMPAELADDTLDILGNPSPAELRVSPDIERVLGRAPRPFADWAARNADAFR | failed |
